Earlier results, collected in PMC10609526.

Target: DmsA Tat signal peptide (Escherichia coli) (UniProt P18775)
Chain of UniProt P18775 (P18775 1-45): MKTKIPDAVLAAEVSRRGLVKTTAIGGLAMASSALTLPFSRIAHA

Kd: 220 nM
Substance: DmsD (from UniProt P69853)
